For orientation: stoichiometry N means a count of units in the complex or per binding partner.

Data set [1] has as its target Ms_ornΔC (C-terminal deletion mutant of Ms_orn lacking residues 186-209) (Mycobacterium smegmatis mc2155). The data set can be described thus: not stated; oligomeric state of purified Ms_ornΔC, shown in Fig. S3.
The target of data set [2] is Orn of Mycobacterium smegmatis (MSMEG_4724, clone B) (Mycobacterium smegmatis mc2155). Briefly: SEC; Superdex-75 (10/300) column, 20 mM Tris-HCl pH 8.5, 100 mM NaCl; elution volume compared with molecular weight standards. Background: SEC sorts molecules by how far they enter the pores of the column.
The target is the same in data set [3]. The data set can be described thus: SEC-MALS; Superdex-75 (10/300) with in-line MALLS and refractive index detectors, room temperature, 20 mM Tris-HCl pH 8.5, 100 mM NaCl, 5% glycerol, 0.5 ml/min; 200 ul of 3 mg/ml Ms_orn or 6 mg/ml Eco_orn.
Data set [4] has the same target. Briefly: SEC; Superdex-75 column, Ms_orn with increasing concentrations of Gdm-HCl.
Data set [5] concerns the molecule itself. The data set can be described thus: SEC; Superdex-75 (10/300) column, 20 mM Tris-HCl pH 8.5, 100 mM NaCl; elution volume compared with molecular weight standards.

“Ms_ornΔC (C-terminal deletion mutant of Ms_orn lacking residues 186-209) (domain or fragment)” gave a stoichiometry N in data set [1] of 2.

On to “Orn of Mycobacterium smegmatis (MSMEG_4724, clone B) (enzyme)”, for which the stoichiometry N in data set [2], in data set [3] and in data set [4] was 2 in each case.

B1: Orn of Escherichia coli (enzyme, Escherichia coli K-12, UniProt P0A784 1-181, looked up)
chain: MSANENNLIWIDLEMTGLDPERDRIIEIATLVTDANLNILAEGPTIAVHQSDEQLALMDDWNVRTHTASGLVERVKASTMGDREAELATLEFLKQWVPAGKSPICGNSIGQDRRFLFKYMPELEAYFHYRYLDVSTLKELARRWKPEILDGFTKQGTHQAMDDIRESVAELAYYREHFIKL
notes: Oligoribonuclease (Orn) of Escherichia coli K-12; open reading frame of orn amplified from genomic DNA; residues 2-181 traced in the structure; also called oligoribonuclease; not shown: His10-Smt3, N-terminal, cleaved
Turning to B1, the “stoichiometry N” value in data set [5] came out at 2.

For the origin of these results see publication PMC9676404, “Three-dimensional structure of a mycobacterial oligoribonuclease reveals a unique C-terminal tail that stabilizes the homodimer” (The Journal of Biological Chemistry, 2022).
